Key:
[1] = target: the molecule itself; experiment: SEC-MALS; HPLC-MALS; Bio SEC-5 HPLC column (300 Å), 20 mM Tris-HCl (pH 7.5), 200 mM NaCl; 100 μl of purified (Sa)EctC at 2 mg ml^-1 loaded
[2] = substrate: CC(=O)NCC[C@H](N)C(=O)O; experiment: HPLC assay of ectoine formation, Michaelis-Menten; format: biochemical, Sphingopyxis alaskensis; details: 20 mM Tris pH 8.5, 200 mM NaCl, 1 mM FeCl2, 15 °C, 20 min, 0-40 mM substrate
[3] = substrate: CC(=O)N[C@@H](CCN)C(=O)O; experiment: HPLC assay of ectoine formation, Michaelis-Menten; format: biochemical, Sphingopyxis alaskensis; details: 20 mM Tris pH 8.5, 200 mM NaCl, 1 mM FeCl2, 15 °C, 20 min, 0-200 mM substrate

B1: ectoine synthase from Sphingopyxis alaskensis, (Sa)EctC-Strep-tag II protein (enzyme, UniProt Q1GNW6 1-137, looked up)
chain: MIVRNLGDIRKTDRNVRSDGWASARMLLKDDGMGFSFHVTTLFAGSELRMHYQNHLEAVLVLKGTGTIEDLATGEVHALRPGVMYALDDHDRHIVRPETDILTACVFNPPVTGREVHDESGAYPADPELAREPVAAD
notes: Ectoine synthase EctC (EC 4.2.1.108) of Sphingopyxis alaskensis, 137 amino acids; made from a codon-optimised synthetic ectC gene; printed stretches: 1-MIVRN-5 and 82-GVMYAL-87; Monomer with tag 16.3 kDa; In the crystals only Met-1 to Glu-115 (open) or Met-1 to Gly-121 (protomer A, semi-closed) are resolved; not shown: Strep-tag II, C-terminal, kept
stoichiometry N [1]: 2 | Km [2]: 4.9 ± 0.5 mM | kcat [2]: 7.2 s⁻¹ | Km [3]: 25.4 ± 2.9 mM | kcat [3]: 0.6 s⁻¹

Source: paper PMC4795551, “Biochemistry and Crystal Structure of Ectoine Synthase: A Metal-Containing Member of the Cupin Superfamily” (PLoS ONE, 2016)
